From US20110039257A1

Target: Akt1/PKB alpha recombinant enzyme (Upstate Biotechnology)
Experiment: cell-based or functional assay

Sequence of Akt1/PKB alpha recombinant enzyme (Upstate Biotechnology) (P31749 whole entry): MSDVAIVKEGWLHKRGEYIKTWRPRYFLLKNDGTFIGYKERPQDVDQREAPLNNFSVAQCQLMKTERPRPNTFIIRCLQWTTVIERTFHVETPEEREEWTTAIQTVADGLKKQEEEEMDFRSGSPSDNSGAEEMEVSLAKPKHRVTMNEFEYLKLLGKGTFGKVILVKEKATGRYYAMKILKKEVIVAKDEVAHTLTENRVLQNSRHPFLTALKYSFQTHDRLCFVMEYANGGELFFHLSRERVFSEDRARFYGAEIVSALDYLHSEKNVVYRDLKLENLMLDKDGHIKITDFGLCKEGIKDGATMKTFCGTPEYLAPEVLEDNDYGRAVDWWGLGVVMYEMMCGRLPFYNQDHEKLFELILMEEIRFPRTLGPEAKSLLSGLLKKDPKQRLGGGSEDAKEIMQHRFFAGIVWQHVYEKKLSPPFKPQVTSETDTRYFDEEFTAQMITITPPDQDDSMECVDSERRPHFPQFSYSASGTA

decrease in luminescence (luciferase activity) with versus without Akt1/PKB: 50%
B1: CPM firefly luciferase serine/threonine kinase biosensor, construct pBFB340: Met-(Luc2.0 A-544)-(linker X)-…-(…)-(Rad53p FHA2 domain)-(linker Y)-(Luc2.0 4-B) (protein, part only; not given: luciferase fragments and linkers, part only)
chain, part: RKRDRLGTLGIGGSSGGGSGGGGSGGGNGRFLTLKPLPDSIIQESLEIQQGVNPFFIGRSEDCNCKIEDNRLSRVHCFIFKKRHAVGKSMYESPAQGLDDIWYCHTGTNVSYLNNNRMIQGTKFLLQDGDEIKIIWDKNNKFVIGFKVEINDTTGLFNEGLGMLQEQRVVLKQTAEEKDLVKKL
